The text below walks through data of the DeepSol protein solubility set.

This data set in a line: soluble on expression in E. coli; label from the status in PepcDB or PDB records.
For the sequence “MQSFNSGSTKIHNAFPEESTRPQKAEGNTAMNILVLGSDSRGSSDADVEANTATDQRADTLMLVHVPADRKKTYAISLMRDLWIDIPGVGESKINAALAYGGVPLMVQTVESLLQQRIDHVAMIDFQGFKGLTDALGGVEVDVRIPFAPSSGPKAGQVYDAGKQTLNGDEALAFVRERKAFSDGDYQRVRNQQAYLKAIIGKVIARETLTNPVTISNMVSAVSPFVSVDKDFDAAAIGSLALSMKDVRAQDTVMFTLPTLGTGTSPDGQSIVLADTTAIADVTAALAKDQVDAYITAHALDKGFLEHHHHHH”, the “soluble on expression in E. coli” value was “soluble”.

Turning to “MGSDKIHHHHHHANDETIEINYGESISLSAVAGKTTRTGSEATTTNSIRNFHVLAFTQGATYMDCDVRKQGNVWSYGDTKFWPETDVDFYSYSPMNTQNGNVSIKVEGDKKIANYNVPGDEDLLYALNQAEKKNEHEGERPVMVNFRHALSQIVFRIRNTSSNLTVFVDAVKVEGIEKQGTFFWPTLSTTTQWQGTEKDTETDNSWGRWNIVYNKENAKQNNYAAEIIPIMEQGFVGSIDASVRDLTVKTDNGYKGLLLLPQTLNPWITKTGGTDENPEYKITGTARVLVKCKLVDTVSNVQLWPNTNSHEETTWVGVSLVGEPKDINGKTEQVWKQGKRYVYTLIFGEGGGFNPDPDPENPDPEPVLVPITFAVTVDDFVEYPQDLDASVPNSNSGQ”, the “soluble on expression in E. coli” value is given as “not soluble”.

In the case of “MTMIKKIETELLAAKATLSEISGRFKEFSDTQARLSADGDLLGLARLNKEHTGLEDSLLAADDTVRALESRLSVLRQAEYRPQFDKAHKTHLGAVQAETKAAEKLLAAIDAVFSAATDMQNLSDEVAATYHAARDLHNRAGLDHELRWPAPDGQIPIKISDRMNSLRDELVRTIRLYEDRLPQSQSLEGLRIIEQQQEELVRNSGRGFR”, the “soluble on expression in E. coli” value is listed as “soluble”.

For the sequence “MAVGTEESDFEGWAFPFPGVMLIEDFVTREEEAELVRLMDRDPWKLSQSGRRKQDYGPKVNFRKQKLKTEGFCGLPSFSREVVRRMGLYPGLEGFRPVEQCNLDYCPERGSAIDPHLDDAWLWGERLVSLNLLSPTVLSMCREAPGSLLLCSAPSAAPEALVDSVIAPSRSVLCQEVEVAIPLPARSLLVLTGAARHQWKHAIHRRHIEARRVCVTFRELSAEFGPGGRQQELGQELLRIALSFQGRPVLEHHHHHH”, the “soluble on expression in E. coli” value was “soluble”.

For the sequence “MSTTDDTHNTLSTGKCPFHQGGHDRSAGAGTASRDWWPNQLRVDLLNQHSNRSNPLGEDFDYRKEFSKLDYSALKGDLKALLTDSQPWWPADWGSYVGLFIRMAWHGAGTYRSIDGRGGAGRGQQRFAPLNSWPDNVSLDKARRLLWPIKQKYGQKISWADLFILAGNVALENSGFRTFGFGAGREDVWEPDLDVNWGDEKAWLTHRHPEALAKAPLGATEMGLIYVNPEGPDHSGEPLSAAAAIRATFGNMGMNDEETVALIAGGHTLGKTHGAAAASHVGADPEAAPIEAQGLGWASSYGSGVGADAITSGLEVVWTQTPTQWSNYFFENLFKYEWVQTRSPAGAIQFEAVDAPDIIPDPFDPSKKRKPTMLVTDLTLRFDPEFEKISRRFLNDPQAFNEAFARAWFKLTHRDMGPKARYIGPEVPKEDLIWQDPLPQPLYQPTQEDIINLKAAIAASGLSISEMVSVAWASASTFRGGDKRGGANGARLALAPQRDWDVNAVAARVLPVLEEIQKTTNKASLADIIVLAGVVGIEQAAAAAGVSISVPFAPGRVDARQDQTDIEMFSLLEPIADGFRNYRARLDVSTTESLLIDKAQQLTLTAPEMTVLVGGMRVLGTNFDGSQNGVFTDRPGVLSTDFFANLLDMRYEWKPTDDANELFEGRDRLTGEVKYTATRADLVFGSNSVLRALAEVYACSDAHEKFVKDFVAAWVKVMNLDRFDLQ”, the “soluble on expression in E. coli” value was “not soluble”.

In the case of “MGNSCQNGTYGNNYQNSNRFQNDRFASRYVDGNDTEDCYSGSSRASLAGALRQGLNLKSPVLGYKTPNVRELYTLGRELGQGQFGKTYLCTEISTGCQYACKTILKSNLRCVSDIEDVRREIQIMHHLSGQKNIVTIKDTYEDEQAVHIVMELCAGGELFSKIQKRGHYSERKAAELIKIIVGIIETCHSHGVMHRDLKPENFLLLDADDEFSVKAIDFGLSVFFRPGQVFREVVGSPYYIAPEVLEKRYGPEADIWTAGVILYVLLTGVPPFWADTQSGIYEKVLDGRIDFKSNRWPRISDSAKDLIKKMLCPYPSERLKAHEVLKHPWICDNGVATNRALDPSVLPRLKQFSAMNRLKKLSLQIIAERLSEEEIVGLREMFKAMDTKNRSVVTFGELKGLKRYSSVFKDTEINDLMEAADDTTSTINWEEFIAAAVSLNKIEREKHLMAAFTYFDKDGSGFITVDKLQKACMERNMEDTFLEEMILEVDQNNDGQIDYAEFVTMMQSNNFGLGWQTVESSLNVALREAPQVY”, the “soluble on expression in E. coli” value was “not soluble”.

For “GPGSMHSTPAKEAEAEGYMRSGKKHLQKKLLQFKANYGGAAEDFDKAARIYTNLRNYPKAREAWTQACEAHSKAHNDFNAANSMEKLGDLASQCICESQSTMSSGSTAGMTAQLSEHLFQDAIHAYEEASKLYGVATNGSKQAAVLKKAADLISRSLATVHYRRPGTSGATTVDTAYLQKEYKRIIPELIELMERNWAATESKPFGLPDIYRSHVLLHLRSGDVEGAVHAEKRMIGIVSTSPADGTYDDSKNLFRILNQPSNAAKVGLEIVVLCLSTSVDDGYTWANIEMGRLGAVFGFCGSSEERAAAALLAAYAERDEDALQEALKTNTCFNFLAADVSRIAKKLTLGSKGHSKETGASVAAAGGPERSAAPPSSSQAPVDASETDSEDLR”, the “soluble on expression in E. coli” value is “soluble”.

In the case of “MGSDKIHHHHHHMDELLEKAKKVREAWDVLRNATTREKNKAIKKIAEKLDERRKEILEANRIDVEKARERGVKESLVDRLALNDKRIDEMIKACETVIGLKDPVGEVIDSWVREDGLRIARVRVPIGPIGIIYESRPNVTVETTILALKSGNTILLRGGSDALNSNKAIVSAIREALKETEIPESSVEFIENTDRSLVLEMIRLREYLSLVIPRGGYGLISFVRDNATVPVLETGVGNCHIFVDESADLKKAVPVIINAKTQRPGTCNAAEKLLVHEKIAKEFLPVIVEELRKHGVEVRGCEKTREIVPDVVPATEDDWPTEYLDLIIAIKVVKNVDEAIEHIKKYSTGHSESILTENYSNAKKFVSEIDAAAVYVNASTRFTDGGQFGFGAEIGISTQRFHARGPVGLRELTTYKFVVLGEYHVRE”, the “soluble on expression in E. coli” value is given as “soluble”.

As to “MFTHVESFKSAFLEKLETMYGKSFKDSTTRDQYNTLGYMVREYMNSQWIATNESYRSGERKQMYYLSIEFLLGRLLGSNILNLGIRDVCEQGLSELGISLQQLEEVEADAGLGNGGLGRLAACFLDSLASLDLPGHGCGIRYKHGLFDQKIVDGYQVEFPEQWLLHENVWEVRRHDQAVEVSYFGNVEPLYIDGRLEFRHTNAEVIMAVPYDVPVVGYETSTVNTLRLWNAEPVPFPQNCKDILKYKRETEAVSEFLYPDDTHDEGKILRLKQQYFLVSASLQNIVRLHRERYGDLRQLHEKIAIHINDTHPVLAIPELMRILLDEEKLAWEEAWHITTQTISYTNHTTLSEALEKWPIHIFKPLLPRIYMIIEEINERFCHELWERYPYEWHRIEEMAIIAHDLVKMAHLAIVGSHSVNGVAKIHTEILKQREMRLFYEFYPDKFNNKTNGIAHRRWLMKANPQLTNLISEAIGTEWKKEPIKLQELQLVQYDASFQEKFAEVKQERKEILAERIHNTMGITIDPNSIFDVQVKRLHAYKRQLLNVLHILYLYNRLKEDASFTFYPRTFIFGAKASPGYYYAKKIIKLINELARKVNNDPYVSQYMKVIFLENYRVSLAEDIFPAADVSEQISTASKEASGTGNMKFMMNGAITLGTLDGANIEIKDRVGDDNCFIFGLTAEEVLHYYQNGGYRASDYYHHNGHIKKVVDQLTNGFFAQSGAEFEAIYDSLVIQNDEYFVLRDFGPYAERQEAVGRAYENRTKWLEMSILNIAQSGHFASDRTILQYSNEIWGIGNTVTQI”, the “soluble on expression in E. coli” value was “not soluble”.

For “MKQYFYERECQNPELREQSLLERLPSFITYAKQECQHYGQILQHIDADKITSRELLAQLPITRKSDLMKLQAKNSPLGGLNANKANIGRIFQSPGPIYDPENTSDDWWRLGQAFYAAGFRAGDIVQNCLSYHLTPGGFILDSGARACGCVVIPAGPGQTEQQLDIIEHLKPQGYSGTPSFLKILLDKAKAENRDISSVTKALVTGEALPKGLRAEFDAAGINTLQAYASADVGLIGFESKSDDGFIIAEDLLVEIVRPGTLEPVADGEIGEVVVTSFNVDYPLIRFATGDLSAVKSSESACGRTNMCIKGWLGRADQTTKIKGMFVHAEQIEQVRQAYPHIAKMRLSVTQVNYNDQMNLQCELDSSGYSEADIAGAIENISSSLKKTTKLNGAVELVAVGTLADDGKVIDDLRPIG”, the “soluble on expression in E. coli” value is “not soluble”.

With “MVKTTEVVSEVSKVAGVRPWAGIFVVEIQEDILADEFTFEALMRTLPLASQARILNKKSFHDRCSNLCSQLLQLFGCSIVTGLNFQELKFDKGSFGKPFLDNNRFLPFSMTIGEQYVAMFLVKCVSTDEYQDVGIDIASPCNYGGREELELFKEVFSEREFNGLLKASDPCTIFTYLWSLKESYTKFTGTGLNTDLSLIDFGAISFFPAEGASMCITLDEVPLIFHSQWFNNEIVTICMPKSISDKINTNRPKLYNISLSTLIDYFIENDGL”, the “soluble on expression in E. coli” value is on record as “soluble”.

As for “MFNEKDQLAVDTLRALSIDTIEKANSGHPGLPMGAAPMAYTLWTRHLNFNPQSKDYFNRDRFVLSAGHGSALLYSLLHVSGSLELEELKQFRQWGSKTPGHPEYRHTDGVEVTTGPLGQGFAMSVGLALAEDHLAGKFNKEGYNVVDHYTYVLASDGDLMEGISHEAASFAGHNKLSKLVVLYDSNDISLDGELNKAFSENTKARFEAYGWNYLLVKDGNDLEEIDKAITTAKSQEGPTIIEVKTTIGFGSPNKAGTNGVHGAPLGEVERKLTFENYGLDPEKRFNVSEEVYEIFQNTMLKRANEDESQWNSLLEKYAETYPELAEEFKLAISGKLPKNYKDELPRFELGHNGASRADSGTVIQAISKTVPSFFGGSADLAGSNKSNVNDATDYSSETPEGKNVWFGVREFAMGAAVNGMAAHGGLHPYGATFFVFSDYLKPALRLSSIMGLNATFIFTHDSIAVGEDGPTHEPIEQLAGLRAIPNMNVIRPADGNETRVAWEVALESESTPTSLVLTRQNLPVLDVPEDVVEEGVRKGAYTVYGSEETPEFLLLASGSEVSLAVEAAKDLEKQGKSVRVVSMPNWNAFEQQSEEYKESVIPSSVTKRVAIEMASPLGWHKYVGTAGKVIAIDGFGASAPGDLVVEKYGFTKENILNQVMSL”, the “soluble on expression in E. coli” value is recorded as “not soluble”.

Take “MGHHHHHHSHMKMGYEEVSQKFTSIRRVRGDNYCALRATLFQAMSQAVGLPPWLQDPELMLLPEKLISKYNWIKQWKLGLKFDGKNEDLVDKIKESLTLLRKKWAGLAEMRTAEARQIACDELFTNEAEEYSLYEAVKFLMLNRAIELYNDKEKGKEVPFFSVLLFARDTSNDPGQLLRNHLNQVGHTGGLEQVEMFLLAYAVRHTIQVYRLSKYNTEEFITVYPTDPPKDWPVVTLIAEDDRHYNIPVRVCEETSL”: the “soluble on expression in E. coli” value is listed as “soluble”.

On to “MDARPVHPAFQVFTDALRQRFGEALDAVVLYGSCLHTSDLTEGIADFYVLVSDYRLAYSGRLLAGLNAWLPPNVFYLEVPAAAGVMRAKYAVISTADFERGARQWFHPYIWARFAQPARLLYARDDQTGKRVHTAQASAVLKFISTTLPVLESGPSDLEMIWASGLMLTYAAELRAEREARARHLVRIDPEIYSRLTAAAMPALIPLLSLQADGRYHIGPITPLKRLSARIHWRLRRWQGRVLSVLRLSKATMTFRDCLDYAAWKIERHTGIKVEITPMLRRHPILWGYKVMWQLLRRGVLRLEHHHHHH”, for which the “soluble on expression in E. coli” value is reported as “soluble”.

“MGSDKIHHHHHHMLKIELLESFIAVAECGNMSKAADKVCRTQSTLSLQIKKLEEVVGQSLLLRDNKGTTLTESGSTLLNYAYKMMQLNSQAIHDLKDCQNREIIRLGVPTDYIKFYLNSCLLEFIREFTCIELVIDTDVSGNLFKRLQQGEFDLIVATHWQAPVNGELLFSRRFHWAAAKNGQAHKRSTVPMALYPENCPIRAQVFANHQLSMRPINVLLSTPSPQALCMAVENDLAIAPIAEFRTNEHMQILDPHEHGLPPLPIFNESLYLNPETQTEATMQLITLIKANVEHLSDTID”: the “soluble on expression in E. coli” value is listed as “not soluble”.
